# Data published in patent publication US20180194862A1 (AbbVie / Abbott, published 2018).
# Read-outs that look alike come from different tables or passages of the source.
# T1: mouse 4-1BB (mouse, UniProt P20334 24-187)
# T1 construct: also called mu4-1BB; murine 4-1BB
# T1 sequence (looked up): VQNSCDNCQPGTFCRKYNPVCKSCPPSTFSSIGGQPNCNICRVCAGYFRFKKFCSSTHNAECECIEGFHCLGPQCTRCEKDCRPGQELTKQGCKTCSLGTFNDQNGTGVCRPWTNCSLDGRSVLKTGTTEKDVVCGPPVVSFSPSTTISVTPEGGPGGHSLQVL
# T2: cynomolgus 4-1BB (cynomolgus, UniProt A9YYE7 24-186)
# T2 sequence: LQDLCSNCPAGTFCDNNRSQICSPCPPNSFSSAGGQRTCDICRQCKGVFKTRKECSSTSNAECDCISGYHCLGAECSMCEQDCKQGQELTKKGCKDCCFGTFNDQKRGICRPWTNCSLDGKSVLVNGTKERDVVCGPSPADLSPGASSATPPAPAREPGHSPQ
# B1: TABBY108-rIgG1 (antibody, V domains shown)
# VH: EIQLQESGPGLVRPSQSLSLACSVTGYTITSAYDWSWIRKFPGNKMEWMGYIAYIGFTNSNPSLKSRISITRDTSKNQFFLQLKSVTTEDTATYYCARWSSYIPRYFDFWGPGTMVTVSS
# VL: QAVLTQPNSVSTSLGSTVKLSCTITSGNIEDNFVHWYQHYEGRSPTTMIHNDDKRPDGVPDRFSGSIDSSSNSAFLTINNVEIEDEAIYFCHSYVSSINIFGGGTKLTVL
# notes: rat IgG1
# B2: TABBY3-mIgG2b (antibody, V domains shown)
# VH: GVQLVESGGGLVQPGGSRKLSCAASGFTFSSFGMHWFRQAPEKGLEWVAYISSGSSTIYYADTLKGRFTISRDNPKNTLFLQMTSLRSEDTAMYYCARDWVDYWGQGTTLTVSS
# VL: DIVITQDELSNPVTSGESASISCRSSKSLLYKDGKTYLNWFLQRPGQSPQLLIYLMSTRASGVSDRFTGSGSGTDFTLEISRVKAEDVGVYYCQQPVEYPYTFGGGTKLEIK
# notes: mouse IgG2b
# B3: TABBY101-rIgG1 (antibody, V domains shown)
# VH: QIQLVQSGPELKKPGESVKISCKASGYTFTDFAIHWVKQAPGKGLKWMGWINTYTGKPTYADDFKGRFVFSLEASASTANLQISNLKNEDTATYFCSRGAPRPTNWGQGTLVTVSS
# VL: DIQMTQSPASLSASLGETVSIECLASEDIYNNLAWYQQKPGKSPQLLIYYESRLQDGVPTRFSGSGSGTQYSLKINSLESEDAATYFCLQDSEYPYTFGAGTKLELK
# notes: rat IgG1, kappa
# B4: V5-2 (bispecific antibody)
# chain 1: EVQLQESGPGLVKPSETLSLTCTVSGYSITSNYYWNWIRQPPGKGLEWMGYIRYDGSNNYNPSLKNRVTISRDTSKNQFSLKLSSVTAADTAVYYCARLDYWGQGTTVTVSS
# chain 2: DAVMTQTPLSLSVTPGQPASISCRSSQSLENTNGNTFLNWYLQKPGQSPQLLIYRVSNRFSGVPDRFSGSGSGTDFTLKISRVEAEDVGVYYCLQVTHVPFTFGQGTKLEIK
# chain 3: EVQLVQSGAEVKKPGASVKVSCKASGDTFKRYYVHWVRQAPGQGLEWMGIINPSGVSTTYAQKFQGRVTMTRDTSTSTVYMELSSLRSEDTAVYYCAEVRGSGFNYFGMDVWGQGTLVTVSS
# chain 4: SYELTQPPSVSVSPGQTASITCSGDKLGDKYASWYQQKPGQSPVLVIYQDNRRPSGIPERFSGSNSGNTATLTISGTQAMDEADYYCQAWDSDTYVFGTGTKVTVL
# B5: V6-8 (bispecific antibody)
# chain 1: B4 chain 1
# chain 2: DAQMTQSPSSLSASVGDRVTITCRSSQSLENTNGNTFLNWFQQKPGKAPKLLIYRVSNRFSGVPSRFSGSGSGTDFTLTISSLQPEDFATYYCLQVTHVPFTFGQGTKLEIK
# chain 3: EVQLLESGGGLVQPGGSLRLSCAASGFTFSSYAMSWVRQAPGKGLEWVSAISGGGGRTYYADSVKGRFTISRDNSKNTLYLQMNSLRAEDTAVYYCAREEMAFRAYRFDIWGQGTLVTVSS
# chain 4: not shown
# B6: TABBY106-rIgG1 (antibody, V domains shown)
# VH: QVQLQQSGAELAKPGTSVKLSCKASGYTFTSYYIYWVKQRPGQGLEWIGNIWPGNGGTFYGEKFMGKATFTADTSSSTAYMLLGSLTPEDSAYYFCARRPDYSGDDYFDYWGQGVLVTVSS
# VL: QVVLTQPKSVSTSLKSTVKLSCKLNSGNIGSYYVHWYQQHAGRSPTTMIYRDDKRPDGVPDRFSGSIDSSSNSAFLTINNVQTEDDAIYFCHSYDSTITPVFGGGTKLTVL
# notes: rat IgG1, lambda
# B7: hu107-1 (antibody, V domains shown)
# VH: EVQLVQSGAEVKKPGSSVKVSCKASDYTFNDYWVSWVRQAPGQGLEWIGEIYPNSGATNFNGKFRGRATLTVDNSASTAYMELSSLRSEDTAVYYCTREYTRDWFAYWGQGTLVTVSS
# VL: DVVLTQSPLSLPVTLGQPASISCRSSQSLLDSDGNTYLYWFQQRPGQSPRRLIYLVSNLGSGVPDRFSGSGSGTDFTLKISRVEAEDVGVYYCMQPTHAPYTFGQGTKLEIK
# notes: human IgG1 constant regions with L234A and L235A
# B8: TABBY104-rIgG1 (antibody, V domains shown)
# VH: QVTLKESGPGILQPSQTLSLTCTFSGFSLSTDGLGVTWIRQPSGKGLEWLANIWWDDDKDYNPSLKNRLTISKDTSNPQAFLKITNVDTADTATYYCARIVPNSGHEDYWGQGVMVIVSS
# VL: DIQMTQSPSFLSASVGDRVTINCKASQNINRYLNWYQQKLGEAPKLLMYNTNSMQTGIPSRFSGSGSGTDFTLTISSLQPEDVATYFCLQHNSWPRTFGGGTKLELK
# notes: rat IgG1, kappa
# B9: hu106-1 (antibody, V domains shown)
# VH: EVQLVQSGAEVKKPGSSVKVSCKASGYTFTSYYIYWVRQAPGQGLEWIGNIWPGNGGTFYGEKFMGRATFTADTSTSTAYMELSSLRSEDTAVYYCARRPDYSGDDYFDYWGQGTLVTVSS
# VL: NVMLTQPHSVSESPGKTVTISCKLNSGNIGSYYVHWYQQRPGSSPTTMIYRDDKRPDGVPDRFSGSIDSSSNSASLTISGLKTEDEADYYCHSYDSTITPVFGGGTKLTVL
# notes: as for B7
# B10: TABBY1.1-mIgG1 (antibody, V domains shown)
# VH: EVQLVESGGDLVKPGGSQKLSCAASGFTFSSYGMSWVRQTPDRRLEWVAAIISGGSYTYYPDSVKGRFTISRDNAKNTLYLQMNSLKSEDTAMYYCARHGGYDGNYDYYAMDYWGQGTSVTVSS
# VL: DVLMTQTPLSLPVSLGDQASISCRSSQSIVDSDGITYLEWYLQKPGQSPKLLIYKVSNRFSGVPDRFSGSGSGTDFTLRISRVEAEDLGLYYCFQVSHVPWTFGGGTKLEIK
# notes: mouse IgG1
# B11: TABBY105-rIgG2a (antibody, V domains shown)
# VH: EVQLVESGGGLVQPGRSMKLSCAASGFTFNNYDMAWVCQAPKRGLEWVATISYDGSTTYYRDSVKGRFTFSRDNAKSTLYLQMDSLRSEDTATYYCARVGAGDFDYWGQGVMVTVSS
# VL: DIRMTQSPVSLSTSLGETVNIECLASEDIYSDLAWYQQKPGKSPQLLIYSTNTLQNGVPSRFSGSGSGTQYSLKINSLQSEDVATYFCQQNNNYPYTFGAGTKLELK
# notes: rat IgG2a, kappa
# B12: TABBY107-rIgG1 (antibody, V domains shown)
# VH: QVKLVQSGAALVKPGASVKMSCKASDYTFNDYWVSWVKQRHGESLEWIGEIYPNSGATNFNGKFRGKATLTVDNPTSTAYMELSRLTSEDSAIYYCTREYTRDWFAYWGQGTLVTVSS
# VL: DVVLTQTPSILSATIGQSVSISCRSSQSLLDSDGNTYLYWFLQRPGQSPQRLIYLVSNLGSGVPNRFSGSGSGTDFTLKISGVEAEDLGIYYCMQPTHAPYTFGAGTKLELK
# notes: rat IgG1, kappa
# B13: TABBY103-rIgG1 (antibody, V domains shown)
# VH: QVQLQQSGAELVKPGSSVKISCKASDYTFTSNFLHWIKQQPGNGLEWIGWINPGDGDTYYNQKFNGKATLTADKSSTTAYMQLSSLTSEDSAVYFCAGGNYYAAHYPPGPWYFDFWGPGTMVTVSS
# VL: DTVLTQSPALAVSLGQRVTISCRASKSVSIYMHWYQQKSGQQPKFLIYTASNLESGVPSRFSGSGSGTDFTLTIDPVEADDIANYYCQQSNELPFTFGSGTKLEIK
# notes: rat IgG1, kappa
# B14: CF4 (bispecific antibody, human IgG1, lambda)
# heavy: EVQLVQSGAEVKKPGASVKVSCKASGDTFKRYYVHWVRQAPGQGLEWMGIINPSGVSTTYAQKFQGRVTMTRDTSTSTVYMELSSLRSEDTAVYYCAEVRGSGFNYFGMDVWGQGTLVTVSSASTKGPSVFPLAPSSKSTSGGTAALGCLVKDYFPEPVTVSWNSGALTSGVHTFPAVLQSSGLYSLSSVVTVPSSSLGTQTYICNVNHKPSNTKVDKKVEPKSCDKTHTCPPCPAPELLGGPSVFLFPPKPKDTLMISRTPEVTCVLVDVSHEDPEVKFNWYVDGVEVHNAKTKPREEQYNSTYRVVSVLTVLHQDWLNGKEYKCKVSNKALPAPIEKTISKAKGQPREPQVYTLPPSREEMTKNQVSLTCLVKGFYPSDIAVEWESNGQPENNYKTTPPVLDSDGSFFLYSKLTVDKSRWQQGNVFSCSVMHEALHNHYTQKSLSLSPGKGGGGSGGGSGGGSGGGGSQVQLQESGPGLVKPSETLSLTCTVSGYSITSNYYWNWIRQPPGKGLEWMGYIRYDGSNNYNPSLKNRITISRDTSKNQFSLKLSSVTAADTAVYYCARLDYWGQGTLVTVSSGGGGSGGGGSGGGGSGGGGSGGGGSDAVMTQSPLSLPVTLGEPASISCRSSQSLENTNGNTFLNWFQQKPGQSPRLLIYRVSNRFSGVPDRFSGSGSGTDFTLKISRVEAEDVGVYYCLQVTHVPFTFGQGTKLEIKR
# light: SYELTQPPSVSVSPGQTASITCSGDKLGDKYASWYQQKPGQSPVLVIYQDNRRPSGIPERFSGSNSGNTATLTISGTQAMDEADYYCQAWDSDTYVFGTGTKVTVLGQPKAAPSVTLFPPSSEELQANKATLVCLISDFYPGAVTVAWKADSSPVKAGVETTTPSKQSNNKYAASSYLSLTPEQWKSHRSYSCQVTHEGSTVEKTVAPTECS
# B15: CF9 (bispecific antibody, human IgG1, lambda)
# heavy: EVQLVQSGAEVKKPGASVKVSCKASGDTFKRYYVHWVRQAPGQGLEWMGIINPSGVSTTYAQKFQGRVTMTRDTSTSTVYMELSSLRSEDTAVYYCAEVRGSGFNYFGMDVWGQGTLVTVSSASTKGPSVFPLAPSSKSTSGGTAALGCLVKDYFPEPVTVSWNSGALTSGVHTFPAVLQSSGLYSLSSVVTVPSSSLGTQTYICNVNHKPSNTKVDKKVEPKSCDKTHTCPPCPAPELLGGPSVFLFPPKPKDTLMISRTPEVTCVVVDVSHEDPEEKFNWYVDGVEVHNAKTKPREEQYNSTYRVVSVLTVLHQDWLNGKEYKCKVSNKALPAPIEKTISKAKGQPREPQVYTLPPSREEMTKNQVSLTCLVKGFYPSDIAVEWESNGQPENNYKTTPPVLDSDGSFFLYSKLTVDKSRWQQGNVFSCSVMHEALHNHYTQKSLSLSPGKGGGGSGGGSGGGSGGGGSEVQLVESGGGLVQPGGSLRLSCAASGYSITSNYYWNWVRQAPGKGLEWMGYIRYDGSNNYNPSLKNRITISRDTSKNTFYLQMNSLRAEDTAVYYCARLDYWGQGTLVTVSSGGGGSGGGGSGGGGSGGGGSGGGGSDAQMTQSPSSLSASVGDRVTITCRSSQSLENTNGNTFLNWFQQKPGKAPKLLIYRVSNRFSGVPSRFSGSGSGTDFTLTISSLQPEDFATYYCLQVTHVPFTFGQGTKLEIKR
# light: B14 light
# B16: CF5 (bispecific antibody, human IgG1, lambda)
# heavy: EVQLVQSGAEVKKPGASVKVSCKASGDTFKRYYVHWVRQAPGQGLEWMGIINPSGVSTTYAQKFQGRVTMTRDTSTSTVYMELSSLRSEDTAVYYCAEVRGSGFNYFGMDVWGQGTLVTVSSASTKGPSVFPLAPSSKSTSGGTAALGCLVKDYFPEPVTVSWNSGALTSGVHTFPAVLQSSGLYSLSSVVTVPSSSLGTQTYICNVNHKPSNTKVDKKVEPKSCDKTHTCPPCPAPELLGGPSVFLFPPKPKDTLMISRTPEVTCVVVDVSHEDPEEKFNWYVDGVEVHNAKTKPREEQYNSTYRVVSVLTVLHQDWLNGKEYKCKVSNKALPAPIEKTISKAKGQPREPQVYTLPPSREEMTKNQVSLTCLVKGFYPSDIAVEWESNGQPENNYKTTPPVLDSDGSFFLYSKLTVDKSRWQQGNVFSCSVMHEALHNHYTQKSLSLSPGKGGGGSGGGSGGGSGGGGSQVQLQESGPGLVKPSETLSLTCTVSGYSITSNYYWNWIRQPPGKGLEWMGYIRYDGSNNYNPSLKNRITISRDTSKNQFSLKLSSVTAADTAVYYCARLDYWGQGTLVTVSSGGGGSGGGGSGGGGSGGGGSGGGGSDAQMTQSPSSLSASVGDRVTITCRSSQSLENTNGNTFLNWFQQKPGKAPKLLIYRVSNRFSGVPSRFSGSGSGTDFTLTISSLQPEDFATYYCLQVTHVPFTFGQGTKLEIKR
# light: B14 light
# B17: TABBY102-rIgG1 (antibody, V domains shown)
# VH: QVQLQQSGAELAKPGSSVKISCKASGYTLTSYYLNWIKQTTGQGLEYIGYIDTGSGGSHYNEKFKGKATLTVDKSSSTAFMQLSSLTPVDSAVYYCARGGYYDGFFDYWGQGVMVTVSS
# VL: DIQMTQSPASLSASLGETVSIECLASEGISNDLAWYQQKSGKSPQFLIYAASRLQDGVPSRFSGSGSGTRYSLKISGMQPEDEADYFCQQSYKYPPTFGSGTKLEIK
# notes: rat IgG1, kappa
# What was measured:
# [1] = molecular target: T1, mouse 4-1BB; assay: SPR (Biacore)
# [2] = molecular target: T3, human 4-1BB (human, UniProt Q07011 24-186); assay: SPR (Biacore)
# T3 construct: SPR (Biacore) analyte; also called hu4-1BB
# [3] = molecular target: T4, soluble form of the extracellular domain of human CD40 (Creative BioMart) (human, UniProt P25942 21-193); assay: SPR
# T4 construct: Bought
# [4] = molecular target: T5, human mesothelin (human, UniProt Q13421 296-580, limits assumed); assay: SPR
# T5 construct: also called Human MSLN
# [5] = molecular target: T6, soluble form of the extracellular domain of cynomolgus (cyno) CD40 (Creative BioMart) (cynomolgus, UniProt G7PG38 21-193); assay: SPR
# T6 construct: extracellular domain; also called Cynomolgus CD40
# [6] = molecular target: T3, human 4-1BB; assay: SPR
# [7] = molecular target: T1, mouse 4-1BB; assay: SPR
# [8] = molecular target: T2, cynomolgus 4-1BB; assay: SPR
# [9] = molecular target: T3, human 4-1BB; assay: SPR; remark: listed apart in the source
# [10] = molecular target: T1, mouse 4-1BB; assay: SPR; remark: listed apart in the source
# [11] = molecular target: human CD40 on cells (HEK293 stable transfectants, HEK-Blue CD40 cells, human B cells, monocytic cells, … (human, UniProt P25942 21-277)); assay: cell-based or functional assay
# Sequence of human CD40 on cells (HEK293 stable transfectants, HEK-Blue CD40 cells, human B cells, monocytic cells, … (P25942 21-277 limits assumed): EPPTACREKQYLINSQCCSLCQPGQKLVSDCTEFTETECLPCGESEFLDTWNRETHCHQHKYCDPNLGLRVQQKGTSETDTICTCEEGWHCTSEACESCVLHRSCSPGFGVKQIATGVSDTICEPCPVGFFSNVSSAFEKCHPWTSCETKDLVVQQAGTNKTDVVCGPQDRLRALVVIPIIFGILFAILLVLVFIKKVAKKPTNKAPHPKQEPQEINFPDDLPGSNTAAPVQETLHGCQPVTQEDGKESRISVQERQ
# T4 sequence (P25942 21-193 limits assumed): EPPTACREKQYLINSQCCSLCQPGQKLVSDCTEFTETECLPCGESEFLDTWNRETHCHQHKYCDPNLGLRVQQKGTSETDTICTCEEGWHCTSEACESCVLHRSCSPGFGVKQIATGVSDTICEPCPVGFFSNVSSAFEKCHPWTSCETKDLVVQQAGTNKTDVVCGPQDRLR
# T5 sequence (Q13421 other isoform, or with tags, fused parts or gaps limits assumed): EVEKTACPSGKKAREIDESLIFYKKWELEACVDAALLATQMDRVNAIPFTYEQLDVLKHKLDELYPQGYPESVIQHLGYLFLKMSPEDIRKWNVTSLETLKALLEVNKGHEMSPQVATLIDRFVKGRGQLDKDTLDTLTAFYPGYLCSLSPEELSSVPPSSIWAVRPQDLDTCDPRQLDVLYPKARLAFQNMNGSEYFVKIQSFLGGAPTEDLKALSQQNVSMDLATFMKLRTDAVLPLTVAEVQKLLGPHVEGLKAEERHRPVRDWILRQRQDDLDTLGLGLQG
binder,measurement,setting,value
B1,Kd,[1],0.36 nM
B2,Kd,[2],6.6 nM
B3,Kd,[1],0.82 nM
B4,Kd,[3],150 nM
same,koff,[3],0.25 s⁻¹
same,kon,[3],1.7e+06 M⁻¹ s⁻¹
same,Kd,[4],2 nM
same,koff,[4],2.8e-05 s⁻¹
same,kon,[4],14000 M⁻¹ s⁻¹
same,Kd,[5],120 nM
same,koff,[5],0.11 s⁻¹
same,kon,[5],940000 M⁻¹ s⁻¹
B5,Kd,[3],14 nM
same,koff,[3],0.014 s⁻¹
same,kon,[3],970000 M⁻¹ s⁻¹
same,Kd,[4],11 nM
same,koff,[4],0.0015 s⁻¹
same,kon,[4],130000 M⁻¹ s⁻¹
same,Kd,[5],11 nM
same,koff,[5],0.013 s⁻¹
same,kon,[5],1.3e+06 M⁻¹ s⁻¹
B6,Kd,[6],12 nM
same,koff,[6],0.026 s⁻¹
same,kon,[6],2.2e+06 M⁻¹ s⁻¹
same,Kd,[7],1.6 nM
same,koff,[7],0.013 s⁻¹
same,kon,[7],8.1e+06 M⁻¹ s⁻¹
same,Kd,[8],18 nM
same,koff,[8],0.022 s⁻¹
same,kon,[8],1.2e+06 M⁻¹ s⁻¹
same,Kd,[1],1.6 nM
B7,Kd,[9],0.16 nM
same,koff,[9],6.5e-05 s⁻¹
same,kon,[9],410000 M⁻¹ s⁻¹
same,Kd,[10],5.2 nM
same,koff,[10],0.0013 s⁻¹
same,kon,[10],240000 M⁻¹ s⁻¹
B8,Kd,[1],0.14 nM
B9,Kd,[9],130 nM
same,koff,[9],0.074 s⁻¹
same,kon,[9],570000 M⁻¹ s⁻¹
same,Kd,[10],17 nM
same,koff,[10],0.036 s⁻¹
same,kon,[10],2.2e+06 M⁻¹ s⁻¹
B10,Kd,[2],2 nM
B11,Kd,[1],15 nM
B12,Kd,[6],0.32 nM
same,koff,[6],0.00014 s⁻¹
same,kon,[6],450000 M⁻¹ s⁻¹
same,Kd,[7],6.7 nM
same,koff,[7],0.0016 s⁻¹
same,kon,[7],240000 M⁻¹ s⁻¹
same,Kd,[8],0.36 nM
same,koff,[8],0.00013 s⁻¹
same,kon,[8],350000 M⁻¹ s⁻¹
same,Kd,[1],6.7 nM
B13,Kd,[1],0.17 nM
B14,"Max. IL-12p70, dendritic cells with cell-surface mesothelin",[11],50 pg/mL
B15,"Max. IL-12p70, dendritic cells with cell-surface mesothelin",[11],120 pg/mL
B16,"Max. IL-12p70, dendritic cells with cell-surface mesothelin",[11],60 pg/mL
B17,Kd,[1],0.84 nM
